Measured values: PMC9918506, “Structural insights into pathogenic mechanism of hypohidrotic ectodermal dysplasia caused by ectodysplasin A variants” (Nature Communications, 2023)

B2: EDA·A1 TNF homology domain (EDA·A1THD, residues 233–391), wild type (domain or fragment, human, UniProt Q92838 233-391, looked up)
chain: GPSGAADKAGTRENQPAVVHLQGQGSAIQVKNDLSGGVLNDWSRITMNPKVFKLHPRSGELEVLVDGTYFIYSQVEVYYINFTDFASYEVVVDEKPFLQCTRSIETGKTNYNTCYTAGVCLLKARQKIAVKMVHADISINMSKHTTFFGAIRLGEAPAS
notes: ectodysplasin A, splice form EDA·A1 (with Val307-Glu308), human, THD residues 233-391; Optimized cDNA in pMAL-c2x; MBP removed with 3C protease; Trimer in the crystal structure; also called WT EDA·A1THD; ectodysplasin A THD; source: E. coli BL21 CodonPlus (DE3), purified (amylose, Superdex 200, 3C cleavage, Mono-S, Superdex 200); not shown: MBP, N-terminal, cleaved

How the values were obtained:
[1] = target: EDA·A1THD (residues 233–391) R276C (human, UniProt Q92838 233-391, R276C); experiment: SPR
[2] = target: B2; experiment: SPR; WT and mutant EDA·A1THD immobilised on CM5 chips, EDAR_(CRDS) serially diluted and injected; Biacore 8K; 10 mM HEPES pH 7.5, 150 mM NaCl, 3 mM EDTA, 25 °C; steady-state analysis at equilibrium; conditions: both partners purified
[3] = target: the molecule itself; experiment: crystal structure; EDA·A1THD and EDAR_(CRDS) mixed at a molar ratio of 1:1; crystals in 25% PEG-6000, 0.1 M BICINE pH 9.0, 4 °C; 2.8 Å
[4] = target: T1, EDA·A1 TNF homology domain (EDA·A1THD, residues 233-391) (human, UniProt Q92838 233-391); experiment: SEC; gel filtration on a Superdex 200 analytical column, fractions on SDS-PAGE; EDA·A1THD alone, EDAR_(CRDS) alone and the mixture; conditions: both partners purified
T1 construct: ectodysplasin A, splice form EDA·A1, human, TNF homology domain, residues 233-391; MBP removed with 3C protease; codon-optimised cDNA in pMAL-c2x; Trimer in the crystal structure; also called EDATHD; ectodysplasin A; source: E. coli BL21 CodonPlus (DE3), purified (amylose beads, Superdex 200, Mono-S, Superdex 200 increase); not shown: MBP, N-terminal, cleaved
T1 sequence (looked up): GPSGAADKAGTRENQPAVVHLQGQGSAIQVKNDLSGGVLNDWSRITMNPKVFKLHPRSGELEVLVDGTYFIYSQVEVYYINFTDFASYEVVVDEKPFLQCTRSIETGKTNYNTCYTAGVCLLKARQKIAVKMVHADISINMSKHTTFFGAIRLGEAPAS

B1: EDAR cysteine-rich domains (EDAR_(CRDS), residues 30–150), MBP tag removed (domain or fragment, human)
chain: GGSGGSGGSGGSNCGENEYYNQTTGLCQECPPCGPGEEPYLSCGYGTKDEDYGCVPCPAEKFSKGGYQICRRHKDCEGFFRATVLTPGDMENDAECGPCLPGYYMLENRPRNIYGMVCYSCLLAPPNTKECVG
notes: EDAR (ectodysplasin A receptor), human, cysteine-rich domains CRD1-CRD3, residues 30-150; Construct: EDAR signal peptide (residues 1-28), MBP, 3C site, linker, EDAR 30-150; That the linker stays on the protein after 3C cleavage follows only from the order in which the methods list the elements; also called ectodomains of EDAR; source: Hi5 insect cells (baculovirus), secreted, purified (amylose, …)
**Q.** With B1 as the binder, how does the Kd [1] read?
**A.** 35.9 nM

**Q.** And the Kd [2]?
**A.** 18.5 nM

**Q.** B2 was tested. Which “stoichiometry N” value [3] did it give?
**A.** 3

B3: EDAR cysteine-rich domains (EDAR_(CRDS), residues 30-150) (domain or fragment, human, UniProt Q9UNE0 30-150, looked up)
chain: NCGENEYYNQTTGLCQECPPCGPGEEPYLSCGYGTKDEDYGCVPCPAEKFSKGGYQICRRHKDCEGFFRATVLTPGDMENDAECGPCLPGYYMLENRPRNIYGMVCYSCLLAPPNTKECVG
notes: EDAR, human, N-terminal cysteine-rich domains, residues 30-150; MBP removed with 3C protease; also called EDAR ectodomain; source: Hi5 insect cells (baculovirus), secreted, purified (amylose beads, Mono-Q, Superdex 200); not shown: MBP, N-terminal, cleaved
**Q.** Does B3 bind [4]?
**A.** binds
